Results on one protein are retold here after PMC6259326, “Study on Suitability of KOD DNA Polymerase for Enzymatic Production of Artificial Nucleic Acids Using Base/Sugar Modified Nucleoside Triphosphates” (Molecules, 2010).

Substrate in data set [1]: Cc1cn([C@H]2C[C@H](O)[C@@H](COP(=O)(O)OP(=O)(O)OP(=O)(O)O)O2)c(=O)[nH]c1=O
Briefly: single nucleotide primer extension, 6-FAM primer, denaturing PAGE. To be noted: apparent Km, 40 °C, primer P1 / template T1, correct insertion, 0.0125 U/μL enzyme. The class given is biochemical, Thermococcus litoralis.
Description: (§1) single nucleotide primer extension, 6-FAM primer, denaturing PAGE on Vent(exo-) DNA polymerase

Substrate in data set [2]: NCCCCCCNC(=O)Cc1cn([C@H]2C[C@H](O)[C@@H](COP(=O)(O)OP(=O)(O)OP(=O)(O)O)O2)c(=O)[nH]c1=O
Described as above. It is filed as biochemical, Thermococcus litoralis. To be noted: apparent Km, 40 °C, primer P1 / template T1, correct insertion, 0.0125 U/μL enzyme.
Description: as §1

Substrate in data set [3]: NCCCCCCNC(=O)Cc1cn([C@@H]2O[C@H](COP(=O)(O)OP(=O)(O)OP(=O)(O)O)[C@@H](O)[C@@H]2O)c(=O)[nH]c1=O
The description is as above. The class given is biochemical, Thermococcus litoralis. Conditions: apparent Km, 40 °C, primer P1 / template T1, correct insertion, 0.0125 U/μL enzyme.
Description: as §1

Substrate in the data set “purified protein”: Nc1ccn([C@H]2C[C@H](O)[C@@H](COP(=O)(O)OP(=O)(O)OP(=O)(O)O)O2)c(=O)n1
Briefly: purified protein. Conditions: apparent Km, 40 °C, primer P1 / template T1, misinsertion, 0.0125 U/μL enzyme.

B1: Vent(exo-) DNA polymerase (Thermococcus litoralis; D141A/E143A) (protein)
chain 1: MILDTDYITKDGKPIIRIFKKENGEFKIELDPHFQPYIYALLKDDSAIEEIKAIKGERHGKTVRVLDAVKVRKKFLGREVEVWKLIFEHPQDVPAMRGKIREHPAVVDIYEYDIPFAKRYLIDKGLIPMEGDEELKLLAFAIATFYHEGDEFGKGEIIMISYADEEEARVITWKNIDLPYVDVVSNEREMIKRFVQVVKEKDPDVIITYNGDNFDLPYLIKRAEKLGVRLVLGRDKEHPEPKIQRMGDSFAVEIKGRIHFDLFPVVRRTINLPTYTLEAVYEAVLGKTKSKLGAEEIAAIWETEESMKKLAQYSMEDARATYELGKEFFPMEAELAKLIGQSVWDVSRSSTGNLVEWYLLRVAYARNELAPNKPDEEEYKRRLRTTYLGGYVKEPEKGLWENIIYLDFRSLYPSIIVTHNVSPDTLEKEGCKNYDVAPIVGYRFCKDFPGFIPSILGDLIAMRQDIKKKMKSTIDPIEKKMLDYRQRAIKLLAN
chain 2: SYYGYMGYPKARWYSKECAESVTAWGRHYIEMTIREIEEKFGFKVLYAD
chain 3: TDGFYATIPGEKPELIKKKAKEFLNYINSKLPGLLELEYEGFYLRGFFVTKKRYAVIDEEGRITTRGLEVVRRDWSEIAKETQAKVLEAILKEGSVEKAVEVVRDVVEKIAKYRVPLEKLVIHEQITRDLKDYKAIGPHVAIAKRLAARGIKVKPGTIISYIVLKGSGKISDRVILLTEYDPRKHKYDPDYYIENQVLPAVLRILEAFGYRKEDLRYQSSKQTGLDAWLKR
notes: commercial exonuclease-deficient enzyme (New England Biolabs), mature intein-free form
One may read the Km as the substrate concentration at which the rate is half of its maximum. The kcat is the number of substrate molecules converted per active site and unit of time at saturation. B1: the Km in data set [1] stood at 3 µM; in data set [2] it was 2.7 µM; in data set [3], 4.4 µM; in the data set “purified protein”, 1700 µM. Besides, the kcat came to 0.00567 s⁻¹ in data set [1], 0.00483 s⁻¹ in data set [2], 0.000817 s⁻¹ in data set [3] and 0.00233 s⁻¹ in the data set “purified protein”.
